Among the data in patent US20250051409A1, “MODULATORS OF PHOSPHATIDYLSERlNE DECARBOXYLASE AND USE THEREOF” (THE NATIONAL INSTITUTE FOR BIOTECHNOLOGY IN THE NEGEV LTD., priority 2021, published 2025) are EC50 (read off the curve), inhibition of PSD activity (DSB-3 method) and Kd values, retold here.

Ends that are not written are not given here.

Test [1] addresses T1, Purified recombinant protein (full length) of human phosphatidylserine decarboxylase (PSD), with N-terminal His tag, expressed in E. coli (Acris-OriGene) (human).
T1 sequence (chain, fluorescently labelled in the MST assay with the peptides): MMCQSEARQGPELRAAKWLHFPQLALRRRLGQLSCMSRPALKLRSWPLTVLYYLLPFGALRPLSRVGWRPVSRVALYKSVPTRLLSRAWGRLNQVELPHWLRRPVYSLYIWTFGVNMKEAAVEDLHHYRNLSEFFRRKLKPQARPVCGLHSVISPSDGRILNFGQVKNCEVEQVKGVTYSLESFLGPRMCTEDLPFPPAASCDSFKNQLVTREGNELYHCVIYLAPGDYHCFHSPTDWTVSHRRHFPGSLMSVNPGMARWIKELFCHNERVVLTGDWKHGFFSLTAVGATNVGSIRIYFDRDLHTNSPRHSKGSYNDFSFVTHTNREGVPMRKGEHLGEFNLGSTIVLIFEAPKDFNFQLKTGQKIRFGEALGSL
Nature of the test: MST, fluorescently labelled purified PSD 0.25 µM, peptide titrated 1-10 µM.

For test [2] the target is unchanged. Kind of test: cell-based or functional assay.
Test [3] has the same target. Nature of the test: microscale thermophoresis; fluorescently labelled PSD (0.25 µM) with peptide (1-10 µM). (In general: In MST a laser heats a spot of the sample, and binding alters the fluorescence response.)

B1: peptide 2F3, derived from MAML2 (peptide)
peptide: ALSTSSPIPSVPQSQAQPQTGSGAS
As for B1, the EC50 (read off the curve) (usually the concentration that produces a half-maximal response) in test [1] is 3000 nM. Besides, the inhibition of PSD activity (DSB-3 method) in test [2] stood at 1 µM. The dissociation constant (Kd) (in general, the free concentration of one partner at which half of the binding sites on the other are occupied at equilibrium, for simple one-to-one binding) in test [3] came to 3000 nM.

B2: peptide 1C11, derived from HTRA2 (peptide)
peptide: ALLTSGTSDPRARVTYGTPSLWARL
modifications: not fully specified
With B2, in test [1], the half-maximal effective concentration (EC50 (read off the curve)) is 4000 nM. Moreover, the inhibition of PSD activity (DSB-3 method) in test [2] was found to be 1 µM. Also, the equilibrium dissociation constant (Kd) in test [3] was 3000 nM.
